T1: recombinant human pancreatic triglyceride lipase (human, UniProt P16233 17-465)
T1 sequence: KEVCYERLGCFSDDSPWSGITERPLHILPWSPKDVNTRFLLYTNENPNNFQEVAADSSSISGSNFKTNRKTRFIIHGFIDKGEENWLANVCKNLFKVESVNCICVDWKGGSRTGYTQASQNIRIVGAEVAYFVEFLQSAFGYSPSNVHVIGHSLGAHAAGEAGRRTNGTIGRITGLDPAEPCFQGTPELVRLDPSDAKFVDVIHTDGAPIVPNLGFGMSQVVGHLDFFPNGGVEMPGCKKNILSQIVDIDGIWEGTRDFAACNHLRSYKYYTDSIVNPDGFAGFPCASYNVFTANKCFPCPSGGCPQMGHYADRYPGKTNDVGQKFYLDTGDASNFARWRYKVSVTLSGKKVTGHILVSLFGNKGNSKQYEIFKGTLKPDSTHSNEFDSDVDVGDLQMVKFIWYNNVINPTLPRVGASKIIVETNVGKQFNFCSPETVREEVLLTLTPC

B1: wild-type human colipase (natural protein, UniProt P04118 18-112, looked up)
chain: APGPRGIIINLENGELCMNSAQCKSNCCQHSSALGLARCTSMASENSECSVKTLYGIYYKCPCERGLTCEGDKTIVGSITNTNFGICHDAGRSKQ

Key:
[1] = biological target: recombinant human pancreatic triglyceride lipase (human) (UniProt P16233); test: co-sedimentation
[2] = biological target: T1, recombinant human pancreatic …; test: co-sedimentation

Row | Molecule | apparent Kd (colipase at half-maximal absorption of PTL to tributyrin emulsion) [1] [nM] | apparent Kd (colipase at half-maximal absorption of PTL to tributyrin emulsion) [2] [nM]
1 | F84A human colipase (natural protein) | 108 | 
2 | L16A human colipase (natural protein) | 25.7 | 
3 | Y55A human colipase (natural protein) | 78.6 | 
4 | I79A human colipase (natural protein) | 36 | 
5 | B1 |  | 22.8

From paper PMC3642234 (Biochimica et biophysica acta, 2013)
